Test results taken from patent US20180057604A1.

Key:
[1] = biological target: cyno TfR extracellular domain (analogous construct to human TfR ecd) (cynomolgus monkey); experiment: SPR, bispecific antibody
[2] = biological target: human TfR extracellular domain with N-terminal His tag (human) (UniProt P02786); experiment: SPR, bispecific antibody
human TfR extracellular domain with N-terminal His tag (human), sequence (P02786 89-760 G142S): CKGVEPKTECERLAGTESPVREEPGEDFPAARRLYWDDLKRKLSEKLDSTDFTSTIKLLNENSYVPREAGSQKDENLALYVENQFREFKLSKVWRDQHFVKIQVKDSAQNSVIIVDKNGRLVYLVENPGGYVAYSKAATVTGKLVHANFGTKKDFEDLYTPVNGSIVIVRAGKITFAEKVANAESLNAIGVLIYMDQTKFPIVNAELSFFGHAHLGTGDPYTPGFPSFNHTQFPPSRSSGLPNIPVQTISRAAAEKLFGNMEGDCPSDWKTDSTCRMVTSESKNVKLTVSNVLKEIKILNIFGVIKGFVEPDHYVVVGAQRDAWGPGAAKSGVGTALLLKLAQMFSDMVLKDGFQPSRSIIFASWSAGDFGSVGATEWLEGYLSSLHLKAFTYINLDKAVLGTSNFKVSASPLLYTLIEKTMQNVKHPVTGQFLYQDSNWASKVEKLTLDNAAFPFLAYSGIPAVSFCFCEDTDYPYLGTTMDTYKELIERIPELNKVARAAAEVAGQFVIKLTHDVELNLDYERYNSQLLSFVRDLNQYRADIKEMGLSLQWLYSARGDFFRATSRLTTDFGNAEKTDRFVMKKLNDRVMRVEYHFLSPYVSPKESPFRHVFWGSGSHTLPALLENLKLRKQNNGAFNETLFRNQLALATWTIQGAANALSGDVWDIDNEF

cyno TfR extracellular domain (analogous construct to human TfR ecd) (cynomolgus monkey), sequence (Q5RDH6 other isoform, or with tags, fused parts or gaps): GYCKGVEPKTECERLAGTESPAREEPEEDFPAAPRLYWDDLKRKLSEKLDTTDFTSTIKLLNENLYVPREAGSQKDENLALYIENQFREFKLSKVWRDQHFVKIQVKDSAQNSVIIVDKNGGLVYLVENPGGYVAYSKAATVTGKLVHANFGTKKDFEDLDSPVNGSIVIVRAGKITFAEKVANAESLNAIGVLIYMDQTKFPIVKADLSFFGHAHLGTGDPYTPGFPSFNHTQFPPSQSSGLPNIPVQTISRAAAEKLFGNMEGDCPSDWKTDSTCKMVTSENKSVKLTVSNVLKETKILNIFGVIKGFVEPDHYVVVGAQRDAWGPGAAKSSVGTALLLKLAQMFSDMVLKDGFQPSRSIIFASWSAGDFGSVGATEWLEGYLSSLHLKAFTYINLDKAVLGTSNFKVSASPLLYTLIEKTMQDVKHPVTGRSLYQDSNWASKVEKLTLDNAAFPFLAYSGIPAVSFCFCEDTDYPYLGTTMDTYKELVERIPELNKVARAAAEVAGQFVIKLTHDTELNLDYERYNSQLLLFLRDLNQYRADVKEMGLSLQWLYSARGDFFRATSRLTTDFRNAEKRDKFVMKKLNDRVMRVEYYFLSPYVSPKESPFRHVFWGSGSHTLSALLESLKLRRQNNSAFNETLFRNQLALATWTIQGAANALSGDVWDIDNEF

B1: anti-TfR^53A/BACE1 bispecific antibody (15G11.T53A arm) (bispecific antibody, part only; not given: anti-BACE1 arm and constant regions, V domains shown, not shown: another chain or arm of the molecule; a dimerising Fc or GST; small tags and cut ends)
VH: EVQLVQSGAEVKKPGASVKVSCKASGYTFTSYWMHWVRQAPGQRLEWIGEINPANGRTNYIEKFKSRATLTVDKSASTAYMELSSLRSEDTAVYYCARGTRAYHYWGQGTMVTVSS
VL: DIQMTQSPSSLSASVGDRVTITCRASDNLYSNLAWYQQKPGKSPKLLVYDATNLADGVPSRFSGSGSGTDYTLTISSLQPEDFATYYCQHFWGTPLTFGQGTKVEIK
Kd [1]: 143 nM | Kd [2]: 24 nM
